# T1: activin A (Sf9 cells) (UniProt P08476 311-426, biotin (biotinylated for the biosensor; site not stated))
# T1 construct: activin A (dimer of inhibin beta A chains), mature ligand; also called Act-A; source: Sf9 cells [59]
# T1 sequence (looked up): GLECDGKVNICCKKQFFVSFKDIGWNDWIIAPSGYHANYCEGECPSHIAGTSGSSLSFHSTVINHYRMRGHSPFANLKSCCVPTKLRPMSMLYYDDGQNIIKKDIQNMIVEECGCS
# B1: BMP-7 (CHO cells, R&D Systems) (ligand, UniProt P18075 293-431, looked up)
# chain: STGSKQRSQNRSKTPKNQEALRMANVAENSSSDQRQACKKHELYVSFRDLGWQDWIIAPEGYAAYYCEGECAFPLNSYMNATNHAIVQTLVHFINPETVPKPCCAPTQLNAISVLYFDDSSNVILKKYRNMVVRACGCH
# modifications: biotin (biotinylated for the biosensor; site not stated)
# notes: bone morphogenetic protein 7 (BMP-7), mature ligand; source: bought: R&D Systems (CHO cells)
# Assays:
# Settings in all cases: both partners purified
# [1] = biological target: T2, ActR-II receptor ectodomain (UniProt P27037 20-135); test: SPR; BIACORE 2000; biotinylated ligand on a streptavidin-modified CM5 chip (about 200 RU); receptor ectodomain as analyte at 1, 2, 3, 5, 10, 20 and 50 uM; HBS500 (10 mM HEPES pH 7.4, 500 mM NaCl, 3.4 mM EDTA, 0.005% P20); apparent KD from the dose dependence of equilibrium binding
# T2 construct: activin receptor type II (ActR-II), extracellular domain; also called ActR-IIECD; source: expressed and purified as described earlier [28]
# [2] = biological target: B1; test: as above
# [3] = biological target: T3, wildtype BMP-2 (bone morphogenetic protein 2), E. coli derived (UniProt P12643 283-396); test: SEC; ternary complex of wildtype BMP-2 as isolated from gelfiltration (HBS700 buffer); its composition by reversed phase HPLC, peak areas divided by the extinction coefficients
# T3 construct: dimeric ligand; also called wtBMP-2; BMP-2 dimer
# [4] = biological target: T4, binary complex of BMP-2 bound to immobilized BMPR-IAECD (formed on the biosensor) (UniProt P12643 283-396; P36894 24-152); test: SPR; BMPR-IAECD immobilised; perfusion with 200 nM BMP-2 for 300 s to form the binary complex, then ActR-IIBECD as analyte at 1 to 50 uM for 120 s; apparent KD from the dose dependence of equilibrium binding, Scatchard analysis
# T4 construct: as the chain of Dm4; as the chain of Dm2; also called BMP-2 in complex with immobilized BMPR-IAECD; binary BMP-2:BMPR-IAECD complex; source: formed on the biosensor by perfusion of immobilized BMPR-IAECD with 200nM BMP-2; copies: 2 +
# [5] = biological target: T5, binary complex BMP-2:BMPR-IAECD (purified) (UniProt P12643 283-396; P36894 24-152); test: ITC; VP-ITC, 298 K (25 C), HBS500 buffer (10 mM HEPES, 500 mM NaCl, pH 7.4); 150 uM ActR-IIBECD in the syringe, 7.5 uM binary complex BMP-2:BMPR-IAECD in the cell; one-site-binding model
# T5 construct: as the chain of Dm1; as the chain of Dm2; Complex formed beforehand and placed in the calorimeter cell at 7.5 uM; also called BMP-2:BMPR-IAECD complex; binary complex of BMP-2 and BMPR-IAECD; copies: 2 + 2
# [6] = biological target: T3, wildtype BMP-2 (bone morphogenetic …); test: SEC; ternary complex of wildtype BMP-2 as isolated from gelfiltration (HBS700 buffer); its composition by analytical SDS-PAGE, band intensities compared with standard mixtures of defined molar ratios
# [7] = biological target: B1; test: SPR; BIACORE 2000; biotinylated ligand on a streptavidin-modified CM5 chip (about 200 RU); receptor ectodomain as analyte at 1, 2, 3, 5, 10, 20 and 50 uM; HBS500 (10 mM HEPES pH 7.4, 500 mM NaCl, 3.4 mM EDTA, 0.005% P20); apparent KD from the dose dependence of equilibrium binding; remark: listed apart in the source
# [8] = biological target: T6, glycosylated BMP-2 expressed in CHO cells (UniProt P12643 283-396, glycosylated; biotin (biotinylated for the biosensor; site not stated)); test: as above
# T6 construct: bone morphogenetic protein 2 (BMP-2), mature ligand; also called BMP-2 (CHO cells, R&D Systems); source: bought: R&D Systems (CHO cells)
# [9] = biological target: T1, activin A (Sf9 cells); test: as above
Binder,rel. KD (against wildtype ActR-IIBECD on the same ligand) [7] [fold],rel. KD (against wildtype ActR-IIBECD on the same ligand) [8] [fold],rel. KD (against wildtype ActR-IIBECD on the same ligand) [9] [fold],also measured
B1,,,,Kd [1]: 0.43 µM
"BMPR-II receptor ectodomain (receptor, UniProt Q13873 27-150, looked up, BMP type II receptor (BMPR-II), extracellular domain; also called BMPR-IIECD; source: expressed and purified as described earlier [28]) SQNQERLCAFKDPYQQDLGIGESRISHENGTILCSKGSTCYGLWEKSKGDINLVKQGCWSHIGDPQECHYEECVVTTTPPSIQNGTYRFCCCSTDLCNVNFTENFPPPDTTPLSPPHSFNRDET",,,,Kd [2]: 32 µM
"ActR-IIB receptor ectodomain (ActR-IIBECD) (receptor, UniProt P27040 19-137, looked up, mouse is recalled from the PDB entry 2H62 and should be checked there; also called activin type IIB receptor ectodomain; source: E. coli OrigamiB (DE3), purified (Ni2+-IMAC, thrombin cleavage, anion exchange, reversed phase HPLC)) SGRGEAETRECIYYNANWELERTNQSGLERCEGEQDKRLHCYASWRNSSGTIELVKKGCWLDDFNCYDRQECVATEENPQVYFCCCEGNFCNERFTHLPEPGGPEVTYEPPPTAPTLLT",,,,stoichiometry N [3]: 1.97 ActR-IIBECD per 0.98 BMP-2 dimer; Kd [4]: 9 µM; stoichiometry N [5]: 2; stoichiometry N [6]: 2.1 ActR-IIBECD per BMP-2 dimer
"ActR-IIBECD R46A (receptor, UniProt P27040 19-137, looked up, source: E. coli OrigamiB (DE3), purified (Ni2+-IMAC, thrombin cleavage, anion exchange, RP-HPLC)) SGRGEAETRECIYYNANWELERTNQSGLERCEGEQDKRLHCYASWANSSGTIELVKKGCWLDDFNCYDRQECVATEENPQVYFCCCEGNFCNERFTHLPEPGGPEVTYEPPPTAPTLLT",3.3,8.4,2.9,
"ActR-IIBECD L61A (receptor, UniProt P27040 19-137, looked up, also called ActR-IIBL61A; source: E. coli OrigamiB (DE3), purified (Ni2+-IMAC, thrombin cleavage, anion exchange, RP-HPLC)) SGRGEAETRECIYYNANWELERTNQSGLERCEGEQDKRLHCYASWRNSSGTIELVKKGCWADDFNCYDRQECVATEENPQVYFCCCEGNFCNERFTHLPEPGGPEVTYEPPPTAPTLLT",6.4,6.4,24,
"ActR-IIBECD Q80A (receptor, UniProt P27040 19-137, looked up, source: E. coli OrigamiB (DE3), purified (Ni2+-IMAC, thrombin cleavage, anion exchange, RP-HPLC)) SGRGEAETRECIYYNANWELERTNQSGLERCEGEQDKRLHCYASWRNSSGTIELVKKGCWLDDFNCYDRQECVATEENPAVYFCCCEGNFCNERFTHLPEPGGPEVTYEPPPTAPTLLT",1,1.3,1.1,
"ActR-IIBECD K37A (receptor, UniProt P27040 19-137, looked up, source: E. coli OrigamiB (DE3), purified (Ni2+-IMAC, thrombin cleavage, anion exchange, RP-HPLC)) SGRGEAETRECIYYNANWELERTNQSGLERCEGEQDARLHCYASWRNSSGTIELVKKGCWLDDFNCYDRQECVATEENPQVYFCCCEGNFCNERFTHLPEPGGPEVTYEPPPTAPTLLT",0.3,6.1,0.7,
"ActR-IIBECD E34A (receptor, UniProt P27040 19-137, looked up, source: E. coli OrigamiB (DE3), purified (Ni2+-IMAC, thrombin cleavage, anion exchange, RP-HPLC)) SGRGEAETRECIYYNANWELERTNQSGLERCEGAQDKRLHCYASWRNSSGTIELVKKGCWLDDFNCYDRQECVATEENPQVYFCCCEGNFCNERFTHLPEPGGPEVTYEPPPTAPTLLT",1.8,1,1,
"ActR-IIBECD K56A (receptor, UniProt P27040 19-137, looked up, source: E. coli OrigamiB (DE3), purified (Ni2+-IMAC, thrombin cleavage, anion exchange, RP-HPLC)) SGRGEAETRECIYYNANWELERTNQSGLERCEGEQDKRLHCYASWRNSSGTIELVAKGCWLDDFNCYDRQECVATEENPQVYFCCCEGNFCNERFTHLPEPGGPEVTYEPPPTAPTLLT",14,11,2.7,
"ActR-IIBECD D63A (receptor, UniProt P27040 19-137, looked up, source: E. coli OrigamiB (DE3), purified (Ni2+-IMAC, thrombin cleavage, anion exchange, RP-HPLC)) SGRGEAETRECIYYNANWELERTNQSGLERCEGEQDKRLHCYASWRNSSGTIELVKKGCWLDAFNCYDRQECVATEENPQVYFCCCEGNFCNERFTHLPEPGGPEVTYEPPPTAPTLLT",6.7,9.6,8.6,
"ActR-IIBECD L61P (receptor, UniProt P27040 19-137, looked up, also called ActR-IIBL61P; source: E. coli OrigamiB (DE3), purified (Ni2+-IMAC, thrombin cleavage, anion exchange, RP-HPLC)) SGRGEAETRECIYYNANWELERTNQSGLERCEGEQDKRLHCYASWRNSSGTIELVKKGCWPDDFNCYDRQECVATEENPQVYFCCCEGNFCNERFTHLPEPGGPEVTYEPPPTAPTLLT",19,7.9,2510,
"ActR-IIBECD Y42A (receptor, UniProt P27040 19-137, looked up, source: E. coli OrigamiB (DE3), purified (Ni2+-IMAC, thrombin cleavage, anion exchange, RP-HPLC)) SGRGEAETRECIYYNANWELERTNQSGLERCEGEQDKRLHCAASWRNSSGTIELVKKGCWLDDFNCYDRQECVATEENPQVYFCCCEGNFCNERFTHLPEPGGPEVTYEPPPTAPTLLT",49,61,290,
